Test results: patent US20210040193A1 (published 2021)

What was measured:
[1] = target: T1, Recombinant human PD-1 (Beijing Sino Biological Inc., Catalog No. 10377-H08H) (human, UniProt Q15116 25-167); test: ELISA; panel B
[2] = target: T1, Recombinant human PD-1 (Beijing Sino …); test: ELISA; panel A

T1 sequence (Q15116 25-167): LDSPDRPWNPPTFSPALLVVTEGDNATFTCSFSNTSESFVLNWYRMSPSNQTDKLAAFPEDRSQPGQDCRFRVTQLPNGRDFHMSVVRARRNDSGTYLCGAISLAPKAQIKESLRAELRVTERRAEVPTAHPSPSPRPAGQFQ

B1: PD-1 (BJHM) monoclonal antibody (antibody, V domains shown)
VH: EVNLVESGGGLVQPGGSLRLSCAASGFTFSSYGMSWVRQAPGKGLEWVASISGGGRYTYYPDSMKGRFTISRDNSKNNLYLQMNSLRAEDTAVYYCVYEYFYTMDYWGQGTLVTVSS
VL: DIVLTQSPATLSLSPGERATLSCRASQSISNNLHWYQQKPGQAPRLLIRFASQSISGIPARFSGSGSGTDFTLTISSLEPEDFAVYFCQQSDNWPLTFGGGTKVEIK
- EC50 [1]: 0.04 nM
- EC50 [2]: 0.061 nM
